Laboratory results from patent publication US9512428B2, “Method of deriving mature hepatocytes from human embryonic stem cells” (Wisconsin Alumni Research Foundation, priority 2012, dated 2016).
Entries after “also recorded” stand apart in the source; their conditions may differ.

Tests used:
CYP1A2 = CYP1A2 induction by omeprazole in transduced hESC-derived hepatocytes (quantitative PCR); type: in vitro ADME, human
Procedure: Induction of this enzyme was also measured in HepG2 human hepatocytes and in fresh primary human hepatocytes. Expression was measured by quantitative PCR, and the expression levels are shown as GAPDH normalized gene expression values (RQ values or relative quantity values. Error bars indicate RQ min and RQ max values).
(RQ values or relative quantity values. Error bars indicate RQ min and RQ max values).
Omeprazole and rifampicin (also known as rifampin; Sigma) were added to DMEM at 100 μM and 10 μM respectively for 3 days. The resulting medium was analyzed by mass spectrometry. Metabolites of the tested drugs, omeprazole sulfone (Santa Cruz Biotechnology), 5-hydroxy omeprazole (Cachesyn), and desacetyl rifampicin (Santa Cruz Biotechnology) were dissolved in DMEM to prepare standard curves.

hESC derived hepatocytes [1] = assay: Rifampin metabolism to 25-des acetyl rifampin in hESC derived hepatocytes (LC-MS/MS); settings: hESC derived hepatocytes co-transduced with let-7c and mir-122, 72 hours incubation
hepatitis B virus (HBV) = assay: HBV infection and replication in transduced hESC-derived hepatocytes (viral genome QPCR); type: cell-based
Procedure: FIG. 8 is a bar graph showing that HBV infects and replicates in human embryonic stem cell-derived hepatocytes. Number of copies of the HBV genome is reported for human embryonic stem cell-derived hepatocytes transduced with mir-122 infected with HBV (es heps with miRNA), positive control (human heps), and negative controls (hepg2). The copy numbers were calculated by QPCR. QPCR standard curve was prepared by serial dilution of LJ144, a construct that contains the whole viral genome. Both LJ144 and QPCR primers were disclosed by Watanabe et al. (PNAS 2007 104 (24)).
The copy numbers were calculated by QPCR. QPCR standard curve was prepared by serial dilution of LJ144, a construct that contains the whole viral genome. Both LJ144 and QPCR primers were disclosed by Watanabe et al. (PNAS 2007 104 (24)). […]
Infected cells were lysed at 6 days post-infection and treated with micrococcal nuclease. […] QPCR was performed to quantify the viral genomes present in the isolated DNA using the QPCR primers disclosed by Watanabe et al. (PNAS 2007 104 (24)). […]
Infectious HBV virions were concentrated from media of HepAD38 cells (Ladner et al. 1997) by PEG 8000 precipitation followed by centrifugation. […] Viral genome copy numbers were quantified by QPCR using primers previously published (see Watanabe et al. 2007). […]

hESC derived hepatocytes [2] = assay: QPCR of liver genes in hESC derived hepatocytes transduced with let-7c alone or with mir-122; type: cell-based, human; settings: GAPDH normalized, versus non-transduced hESC derived hepatocytes
Procedure: (§1) Expression of albumin was also measured in HepG2, a human hepatoma cell line (hepg2). Expression was measured by quantitative PCR. Indicated expression levels (on the Y axis) are GAPDH normalized gene expression values called RQ values (relative quantity values), with HepG2 expression assigned a relative value of 1. Error bars indicate RQ min and RQ max values calculated on 1 standard deviation. All RQ, RQ min and RQ max values were calculated with ViiA7 software on Applied Biosystems QPCR system.
as §1, with “CYP7A1” for “albumin”
as §1, with “CYP3A4” for “albumin”
as §1, with “AFP” for “albumin”
Expression of AFP was also measured in HepG2, a human hepatoma cell line (hepg2). Expression was measured by quantitative PCR.

[3] = test system: primary human hepatocytes; assay: Functional gene expression over time in primary human hepatocytes transduced with mir-122 (QPCR); type: cell-based
Procedure: FIGS. 6A through 6E are a bar graphs showing that lentivirus mediated DNA transfer to primary hepatocytes derived directly from liver tissue results in improved hepatic protein expression over time, as compared to control primary hepatocytes. Expression is shown for albumin (FIG. 6A), tyrosine aminotransferase (TAT) (FIG. 6B), and the CYP 450 enzymes CYP1A2 (FIG. 6C), CYP3A4 (FIG. 6D) and CYP7A1 (FIG. 6E). Expression was measured by quantitative PCR, and the reported values were normalized by GAPDH expression (RQ or relative quantity values, error bars representing standard error, RQ min and RQ max). Expression values are shown for each gene at the time the culture was established (0 day) and 9, 13 or 19 days later.
We cultured primary human hepatocytes (both control hepatocytes and hepatocytes into which vectors were transferred to express mir-122). Mir-122 was transduced into these primary hepatocytes using the lentiviral vector PEZX-MR01. GFP expressing cells were FACS sorted before RNA isolation and gene expression measurements using QPCR.

[4] = test system: hES cell-derived fetal hepatocytes; assay: QPCR of liver genes in hES cell-derived fetal hepatocytes after lentiviral transduction of mir-122; type: cell-based, human
Excerpt: We next determined whether forced expression of mir-122 in the hES cell-derived fetal hepatocytes could program these cells to a more mature differentiated state. We expressed mir-122 in the fetal hepatocytes by lentiviral transduction. Using this method, we achieved ˜5% transduction efficiency (see FIG. 2 GFP positive cells).
These GFP positive cells were then FACS sorted, and RNA was isolated for QPCR measurements of functional genes.
H1 hES cells (J. A. Thomson et al., Science (1998) 282: 1145-1147) cultured in E8 medium (Chen et al., 2011 Nature Methods 8(5) 424-9) were differentiated to fetal hepatocytes lacking functional hepatic enzyme activity following a previously published protocol (see J. Cai et al., Hepatology (2007) 45: 1229-1239), with some modifications. Briefly, the hES cells at approximately 50% confluency were treated with 0.5 mg/ml Albumin fraction V (Sigma) and 100 ng/ml Activin A (Sigma) for 3 days. On the second day of treatment, 0.1% Insulin-transferrin-Selenium (Sigma) was added, and on the third day of treatment, 1.0% Insulin-transferrin-Selenium (Sigma) was added. From day four to day eight, the cells were treated with 30 ng/ml FGF4 (R&D Systems) along with 20 ng/ml BMP2. From days nine through thirteen, 20 ng/ml HGF (R&D Systems) were added to the medium, and finally, the cells were treated for five days with 10 ng/ml Oncostatin M (R&D Systems) and 0.1 μM Dexamethasone (Sigma). Throughout differentiation, hepatocyte growth medium (Promocell) was used as a base medium and cells were kept on Matrigel™ coated plates. […] hepatocytes were obtained for comparison studies (Celsis).
Mir-122 was transduced into the hES derived cells having hepatocyte morphology by a lentiviral vector pEZX-MR01 (Genecoepoeia). Approximately ˜5% of cells were transduced, as measured by GFP expression.
In this example, we performed a QRT PCR comparison of the gene expression levels of the mature hepatocytes produced from human embryonic stem cells according to the procedure outlined in Example 1 (ES hepatocyte expressing mir-122), the expression levels for the same proteins in human primary hepatocytes (Human hepatocyte), the expression levels for the same proteins in the fetal hepatocytes before transduction (ES hepatocyte), and the expression levels for the same proteins in HepG2 cells.

For `COc1ccc2[nH]c([S+]([O-])Cc3ncc(C)c(OC)c3C)nc2c1` (centres unmarked) [omeprazole], which “induction of CYP1A2 upon drug challenge” value (CYP1A2; hESC-derived hepatocytes transduced with both mir-122 and let-7c, versus non-drug treated (ND) cells) is on record?
Its value is “strongly induced; also recorded: induced the expression”.

And the “induction of CYP1A2 upon drug challenge” value (CYP1A2; hESC-derived hepatocytes with let-7c alone, no concurrent mir-122)?
The value was “did not elicit induction”.

And the “expression of CYP1A2 upon addition of drug” value (CYP1A2; mir-122 transduced hES cell-derived hepatocytes, 100 μM for 3 days)?
The value was “substantially up-regulated”.

`CO[C@H]1/C=C/O[C@@]2(C)Oc3c(C)c(O)c4c(O)c(c(/C=N/N5CCN(C)CC5)c(O)c4c3C2=O)NC(=O)/C(C)=C\C=C\[C@H](C)[C@H](O)[C@@H](C)[C@@H](O)[C@@H](C)[C@H](OC(C)=O)[C@@H]1C` [rifampicin] was tested. Which “efficiency of metabolism to 25-des acetyl rifampin” value (hESC derived hepatocytes [1]) did it give?
The value was “comparable to primary human hepatocytes”.

B1: let-7c: human microRNA let-7c (pre-miRNA SEQ ID NO:3, mature SEQ ID NO:4); coding DNA transferred by lentiviral vector pEZX-MR03 (nucleic acid, listed as Homo sapiens)
chain 1: GCAUCCGGGUUGAGGUAGUAGGUUGUAUGGUUUAGAGUUACACCCUGGGAGUUAACUGUACAACCUUCUAGCUUUCCUUGGAGC
chain 2: UGAGGUAGUAGGUUGUAUGGUU
With B1 as the molecule, how does the “productive infection by HBV (relative number of copies of the HBV genome)” value (hepatitis B virus (HBV); transduced versus non-transduced hESC-derived hepatocytes, seventh day after infection) read?
Its value is “significantly down-regulated”.

What about the “AFP (alpha-feto protein) expression” value (hESC derived hepatocytes [2]) of the same molecule?
Its value is “down-regulated”.

And the CYP1A2 expression (hESC derived hepatocytes [2])?
Its CYP1A2 expression is “up-regulated”.

What about the CYP3A4 expression (hESC derived hepatocytes [2]) of the same molecule?
The CYP3A4 expression was “up-regulated”.

What about the CYP7A1 expression (hESC derived hepatocytes [2]) of the same molecule?
Its CYP7A1 expression is “up-regulated”.

And the albumin expression (hESC derived hepatocytes [2])?
Its albumin expression is “up-regulated”.

B2: mir-122: human microRNA mir-122 (pre-miRNA SEQ ID NO:1, mature SEQ ID NO:2); coding DNA transferred by lentiviral vector (nucleic acid, listed as Homo sapiens)
chain 1: CCUUAGCAGAGCUGUGGAGUGUGACAAUGGUGUUUGUGUCUAAACUAUCAAACGCCAUUAUCACACUAAAUAGCUACUGCUAGGC
chain 2: UGGAGUGUGACAAUGGUGUUUG
With B2 as the molecule, how does the “HBV genomes present per well” value (hepatitis B virus (HBV); mir-122 transduced hESC-derived hepatocytes, 6 days post-infection) read?
The value was “presence of HBV genomes”.

What about the “CYP gene expression compared with fresh hepatocytes (day 0)” value ([3]; mir-122 expressing primary hepatocytes in culture) of the same molecule?
The value was “equal or greater amount”.

What about the “mRNA levels of functional genes that decreased in control culture” value ([3]; primary hepatocytes cultured 9 days or more, overexpressing mir-122) of the same molecule?
Its value is “regained their expression”.

What about the “expression of functional genes (quantitative PCR)” value ([4]; GFP positive FACS sorted hES cell-derived hepatocytes expressing miR-122) of the same molecule?
Its value is “significant up-regulation”.

What about the “expression of functional genes (alb, tat, CYP1A2, CYP7A1, CYP3A4, aat) compared with primary hepatocytes” value ([4]; QRT PCR, transduced mature hepatocytes versus human primary hepatocytes) of the same molecule?
The value was “equal or greater expression than in primary hepatocytes”.

What about the transduction efficiency ([4]; lentiviral transduction, GFP positive cells) of the same molecule?
Its transduction efficiency is about 5%.

And the alpha-feto protein expression ([4]; mir-122 expressing hESC-derived hepatocytes)?
Its alpha-feto protein expression is “not down-regulated”.
